One block for each substance: values may come before it.
How the values were obtained:
[1] = target: murine PD-1 on mouse T cells (Balb/c LN T cells, DO11.10 CD4+ T cells, TCR transgenic LN T cells) (murine) (UniProt Q02242)
[2] = target: PD-1 on T cells (species not stated in these experiments)
[3] = target: PD-1 on T cells (species not stated in these experiments); remark: listed apart in the source
[4] = target: PD-1 on T cells (species not stated in these experiments); remark: listed apart in the source
[5] = target: human PD-1 on human T cells or Jurkat T cells (human)
[6] = target: human PD-1 on human T cells or Jurkat T cells (human); remark: listed apart in the source
[7] = target: human PD-1 on human T cells or Jurkat T cells (human); remark: listed apart in the source
[8] = target: human PD-1 gamma 2a fusion protein (human PD-1 extracellular region fused to murine Ig gamma2a hinge-CH2-CH3) (human; murine) [IgG part: P01863]; assay: ELISA: biotinylated PD-L1Fc on immobilized human PD-1Fc, streptavidin-HRP

percentage of dividing cells by propidium iodide staining (DNA content), day 4 (% dividing cells) [1]: 11
Substance: mPD-L1.Fc fusion protein

% IL-2R+ (CD25) T cells (flow cytometry), 79 hours [2]: 15 % IL-2R+
% apoptotic T cells (propidium iodide and annexin positive), 72 hours [3]: 12 % apoptotic
% CD69+ T cells (flow cytometry), 72 hours [4]: 42 % CD69+
Substance: PD-L1.Fc (species not stated in these experiments) (Fc fusion)

Substance: human PD-L1.Ig (extracellular region of human PD-L1 fused to murine Ig gamma2a hinge-CH2-CH3) (from UniProt P01863) (Fc fusion)
IL-10 secretion (ELISA) by human CD4+ T cells [5]: 60 % decrease
interferon-γ secretion (ELISA) by human CD4+ T cells [5]: 80 % decrease
proliferation of human CD4+ T cells, suboptimal anti-CD3 (1 µg/ml) with soluble anti-CD28 [6]: 80 % reduction
proliferation (3H-thymidine) of human CD4+ T cells, 96 hours [7]: 69 % decrease
ED50 [8]: 0.108 µg/mL
